Test results from US20240218030A1 (CELLEMEDY, published 2024).

Molecular target: T1, human transferrin receptor-Fc tag standard (human, UniProt P02786 89-760, limits assumed)
T1 construct: Reagent coated on the ELISA plate at 2 ug/ml; also called hTfR; hTER; not shown: Fc tag
Assay: ELISA on plate-coated human TfR-Fc with anti-His detection; Kd calculated from an expected saturation point, since the curve was not saturated at 10000 nM
Experimental: Then, it was washed 3 times with 200 μl of PBST (PBS+Tween0.05%). An antibody (mouse anti-His tag antibody, Hisprobe) that specifically binds to the hexa-His tag was diluted 1/1000 in PBST, and the diluted solution was treated by 100 μl at room temperature for 1 hour.
Then, it was washed 3 times with 200 μl of PBST (PBS+Tween0.05%). TMB solution expressing coloration by reacting with HRP was treated by 100 μl at room temperature for 15 minutes. After 50 μl of 1M H₂SO₄ solution was treated, optical density was measured with TECAN at a wavelength of 450 nm. This was calculated using the Langmuir equation (Table 4, FIGS. 4 to 6).
FIG. 7 illustrates results of evaluation/comparison of the binding force of huHF_mutant1-dual and huHF_mutant2-dual to hTfR.

T1 sequence (P02786 89-760 limits assumed): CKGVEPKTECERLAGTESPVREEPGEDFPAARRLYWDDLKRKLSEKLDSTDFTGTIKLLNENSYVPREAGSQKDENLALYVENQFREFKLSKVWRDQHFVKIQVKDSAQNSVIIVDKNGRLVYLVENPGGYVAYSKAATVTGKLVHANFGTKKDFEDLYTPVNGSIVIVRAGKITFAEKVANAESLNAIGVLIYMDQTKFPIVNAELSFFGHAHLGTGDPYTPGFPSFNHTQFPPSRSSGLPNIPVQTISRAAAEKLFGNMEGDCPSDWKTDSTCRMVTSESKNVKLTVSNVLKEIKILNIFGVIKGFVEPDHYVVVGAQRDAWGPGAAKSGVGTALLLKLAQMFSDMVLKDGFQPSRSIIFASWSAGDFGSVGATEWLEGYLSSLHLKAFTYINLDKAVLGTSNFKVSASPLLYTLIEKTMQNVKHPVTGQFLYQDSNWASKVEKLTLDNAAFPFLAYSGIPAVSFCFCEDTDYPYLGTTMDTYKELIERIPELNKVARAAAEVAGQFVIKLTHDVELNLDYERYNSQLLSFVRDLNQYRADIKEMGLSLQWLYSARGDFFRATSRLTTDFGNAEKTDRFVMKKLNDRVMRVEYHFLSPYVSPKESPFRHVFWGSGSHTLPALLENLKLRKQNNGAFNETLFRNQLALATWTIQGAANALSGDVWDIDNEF

Kd: ~4.4 µM
B1: huHF_Mutant2-dual (designed binder)
chain: MTTASTSQVRQNYHAASEAAINAQINLELYASYVYLSMSYYFDRDDVALKNFAKYFLHQSHEEREHAEKLMKLQNQRGGRIALADIQKPDCDDGGSYGSLYAFDIWESGLNAMECALHLEKNVNQSLLALHALATAKNDPHLCDFIETHYLNEQVKAIKELGDHVTNLRKMGAPESGLAEYLFDKHTLGDSDNESMPSFITLASLSTWEGYFDF
notes: Self-assembled ferritin nanoparticle of 24 monomers
